Assay: soluble on expression in E. coli; label from the status in PepcDB or PDB records

Row | Sequence | soluble on expression in E. coli
1 | AAIDPNRIVALEWLPVELLLALGIVPYGVADTINYRLWVSEPPLPDSVIDVGLRTEPNLELLTEMKPSFMVWSAGYGPSPEMLARIAPGRGFNFSDGKQPLAMARKSLTEMADLLNLQSAAETHLAQYEDFIRSMKPRFVKRGARPLLLTTLIDPRHMLVFGPNSLFQEILDEYGIPNAWQGETNFWGSTAVSIDRLAAYKDVDVLCFDHDNSKDMDALMATPLWQAMPFVRAGRFQRVPAVWFYGATLSAMHFVRVLDNAIGGKA | soluble
2 | AAKVHVDIEADSPFIKSLQKAFPSFEVESLQVTPNDHANARAFSHLATKLIEQETDKDLILDIGSAPSRRMMSTHKYHCVCPMRSAEDPERLDSYAKKLAAASGKVLDREIAGKITDLQTVMATPDAESPTFCLHTDVTCRTAAEVAVYQDVYAVHAPTSLYHQAMKGVRTAYWIGFDTTPFMFDALAGAYPTYATNWADEQVLQARNIGLCAASLTEGRLGKLSILRKKQLKPCDTVMFSVGSTLYTESRKLLRSWHLPSVFHLKGKQSFTCRCDTIVSCEGYVVKKITMCPGLYGKTVGYAVTYHAEGFLVCKTTDTVKGERVSFPVCTYVPSTICDQMTGILATDVTPEDAQKLLVGLNQRIVVNGRTQRNTNTMKNYLLPIVAVAFSKWAREYKADLDDEKPLGVRERSLTCCCLWAFKTRKMHTMYKKPDTQTIVKVPSEFNSFVIPSLWSTGLAIPVRSRIKMLLAKKTKRELIPVLDASSARDAEQEEKERLEAELTREALPPLVPIAPAETGVVDVDVEELEYHAGA | not soluble
3 | AAPYRCPLCRAGCPSLASMQAHMRGHS | soluble
4 | AAWLQRKQFVSAGQEVAARLNTLGAELTQSRNDMREALALAQAQSGKVAELEGKVREAQSQYSALQQALQNLNDGASDEMLANDIERLITIASQQLRLAGNVSNAIVALETAQARLARADRPRFASLQQSINGDLDRLRAVGVVDIAAQSARIDRLVALVGRAPLLVPDAAAPGVTAVPQANEAVPASVDPGADLPADAAWWQRWQAEIASWPGRAGSALAHELGDLIRVQRVDQPTALLLSPEQAGQLRSTLRQRLLTAQLSMLMRQPAVWKSELDAVAATLAQYFDGKAPDTVAALALARELGQVEIAVRVPDVADSLNGIAALRAAGFNADG | not soluble
5 | ACQIFVRNLPFDFTWKMLKDKFNECGHVLYADIKMENGKSKGCGVVKFESPEVAERACRMMNGMKLSGREIDVRIDRNA | soluble
6 | ADPDTGVDTGAPYWTRPERMDKKLLAVPAANTVRFRCPAAGNPTPSISWLKNGREFRGEHRIGGIKLRHQQWSLVMESVVPSDRGNYTCVVENKFGSIRQTYTLDVLERSPHRPILQAGLPANQTAVLGSDVEFHCKVYSDAQPHIQWLKHVEVNGSKVGPDGTPYVTVLKSWISESVEADVRLRLANVSERDGGEYLCRATNFIGVAEKAFWLSVHGPRAAEEELVEADEAGSVHHHHHH | soluble
7 | ADQVDPQLKFAMQRDLGIFPTQLPQYLQTEKLARTQAAAIEREFGAQFAGSWIERNEDGSFKLVAATSGARKSSTLGGVEVRNVRYSLKQLQSAMEQLDAGANARVKGVSKPLDGVQSWYVDPRSNAVVVKVDDGATDAGVDFVALSGADSAQVRIESSPGKLQTT | soluble
8 | AEIKNVILMIGDGMGPQQVGLLETYANQAPNSIYKGNKTAIYQLAQEGVIGSSLTHPEDAIVVDSACSATMLATGIYSSSEVIGIDSQGNHVETVLEKAKKAGKATGLVSDTRLTHATPASFAAHQPHRSLENQIASDMLATGADVMLSGGLRHWIPKSTNDKGETYKQLEKLTQGDVYLKSKRKDDRNLLTEAEKDGYQLAFNRNMLDDAKGDKLLGLFAYSGMDDGIAYSNKKKSGERTQPSLKEMTQKALNILSKDEDGFFLMVEGGQIDWAGHSNDAGTMLHELLKFDEAIQTVYEWAKDREDTIVIVTADHETGSFGFSYSSNDLPKPQKRSGEAFADRDYAPNFNFGAFDILDGLYNQKQSYYGMISEFQKLDKSLQTPEKLAEIVNKNSEFPITAEQAKNVLASKPNPYRLAQHKYLSAEEVPAINDFDAFFPYNDRGNLLAREQATGQNIVWGTGTHTHTPVNVFAWGPAEKILPVSKIMHHSELGEYIKQQVN | soluble
9 | AEKQVTAGRHTYALPELFLVMATQNPIEQEGTYPLPEAQLDRFLLHLEVDYPDAEHELAILRINRGEAKGECSIERPSLSQQDIFTARQEVLDIHMAEAIEQYIVRLVMATRRASEYDSELDKWLAMGVSPRATIALDRCARAHAWLAGRDFVSPEDVQAMAYPVLRHRLLLSYHAQAEGVTSNQVIDKLLNLVGSA | not soluble
10 | AFLNKHFAKKNHNISVDELSHALELTDKAELTEENNILEGIIRFGGETAKEVMTSRLDVVDLDIRTPFKDVIQCIIDNAYSRIPIYSGTRDNIKGVLYIKDLLPHLNKGDNFRWQSLIRPAYFVPETKMIDDLLRDFQANKIHIAIVVDEFGGTSGIVTMEDIIEEIVGEIHDEYDD | soluble
11 | AFSGTWQVYAQENYEEFLKALALPEDLIKMARDIKPIVEIQQKGDDFVVTSKTPRQTVTNSFTLGKEADITTMDGKKLKCTVHLANGKLVTKSEKFSHEQEVKGNEMVETITFGGVTLIRRSKRV | soluble
12 | AFTGKFEMESEKNYDEFMKLLGISSDVIEKARNFKIVTEVQQDGQDFTWSQHYSGGHTMTNKFTVGKESNIQTMGGKTFKATVQMEGGKLVVNFPNYHQTSEIVGDKLVEVSTIGGVTYERVSKRLA | soluble
13 | AFTGKYEIESEKNYDEFMKRLALPSDAIDKARNLKIISEVKQDGQNFTWSQQYPGGHSITNTFTIGKECDIETIGGKKFKATVQMEGGKVVVNSPNYHHTAEIVDGKLVEVSTVGGVSYERVSKKLA | soluble
14 | AGMELVGWLVDKGITSEKQWIQEDQASYISFNAASNSRSQIKAALDNAGKIMSLTKTAPDYLVGQQPVEDISSNRIYKILELNGYDPQYAASVFLGWATKKFGKRNTIWLFGPATTGKTNIAEAIAHTVPFYGCVNWTNENFPFNDCVDKMVIWWEEGKMTAKVVESAKAILGGSKVRVDQKCKSSAQIDPTPVIVTSNTNMCAVIDGNSTTFEHQQPLQDRMFKFELTRRLDHDFGKVTKQEVKDFFRWAKDHVVEVEHEFYVKKGG | soluble
15 | AHHHHHHGSFEISIYLPTEIVFGPGKLEMLPKLVKKHGLSGKALIVTGRRSTKETGVLYRVQELLKQAGVESIVFDKIIPNPISTHVDEGAEIARKENVSFVVGLGGGSAIDSAKAIAMTAASGGKYWDYVPAVGGGKKPTGALPIVAIPTTHGTGTEADPYAVITNPETKEKQGIGYDVLFPKFSIVDPELMLTLPKDQTVYTSMDAFYHSIEAFLNVRANPYSDVLALDSMRRIVTYLPLAYENLRNLEARTQLAWASTEAGITETVTGVVANHALEHGLSGFYPEVPHGLGLCILGPYLFEYILDYAYEKLAIVGREVFGVYEPNDRKAAELAIKKLRDFQSLFGVNKKLRELGVKEEDIPEMARTAYRMMKPVIEATPGDLKVEDLEEIYRRAY | soluble
16 | AHHHHHHGSGRFVVWPSELDSRLSRKYGRIVPRSIAVESPRVEEIVRAAEELKFKVIRVEEDKLNPRLSGIDEELRTFGMIVLESPYGKSKSLKLIAQKIREFRRRSA | not soluble
17 | AHHHHHHGSIIAITGTPGVGKTTVARKLAEKLGCKYVNLRDFALEKGIGEVKGDELEVEVDELAYFVEKEFKGKNVVLDGHLSHLMPADLVIVLRAHPKTIAERLKERGYSKDKIGENVEAELVDVILIEALDEHENVIEVDTTGKTPEEVVNEILNLINSGIKRRVGIVDWTKVYEEIIPYLRLGGD | not soluble
18 | AHHHHHHGSIVPALIGSLPRPIGLAKKLEQYYIGRLDERKLEEAYREYTRRAFEKLRDAKIKVITDGLYRWDDIFNPFIRFIDGIEVNGLFKFYENNFFYRSPVVRGEIALKENPIPEWISIAQEIKEDVYPEATLKAVLPGPVTLAYHSINEYYKTLTDLAEAYAQVIGELIKELDVKIVELQEPSLAAEISEATKNIEDRVDKEVAKNIIEDLGRIKKLWVVTYFGTPQVLPEGVILNVDLIEGSVPEEYSGEIGLGIVDARTTKMERADRLRDKIRKYLAKFETIYVTPNTLLDFLPESVAWKKLRLLGRLGGE | not soluble
19 | AHHHHHHGSQHPRKIYFVDTSFLTFLSVKFSKNMERLMENTVFIELLRRGKGVNYALGKNWGIDFVLLIKVSYDVSDEGTLRCEVNALRKVSREFDFKNALLITWNSKRRIEREEL | soluble
20 | AHHHHHHGSRFLIRLVPEDKDRAFKVPYNHQYYLQGLIYNAIKSSNPKLATYLHEVKGPKLFTYSLFMAEKREHPKGLPYFLGYKKGFFYFSTCVPEIAEALVNGLLMNPEVRLWDERFYLHEIKVLREPKKFNGSTFVTLSPIAVTVVRKGKSYDVPPMEKEFYSIIKDDLQDKYVMAYGDKPPSEFEMEVLIAKPKRFRIKPGIYQTAWHLVFRAYGNDDLLKVGYEVGFGEKNSLGFGMVKVEGNKTTKEAEEQEKITFNSREELKTGV | not soluble
21 | AHHHHHHGSSNIVKGIVKWVEGEQFIGGIEGENCSVILGEGGISPMKLLLLSVAGCTAYDVVMILRKMREPIRGLRVEIEGVRREEHPRVYKEVTIHYKIYGKVDEKKARRAIELSQEKYCSASAHLKLGGTIVRYTLEIFDDEPPSHAEG | soluble
22 | AIAASSDVLRQPDKNARPLALSGHVGFDSLPDQLVNKSTSQGFCFNILCIGETGIGKSTLMDTLFNTNFENFESSHFEPKVKLRAQTYDLQESNVRLKLTVVNTVGFGDQMNKQESYQHIVDYIDTQFESYLQEELKIKRSLHNYHDSRIHACLYFIAPSGHSLKSLDLVTMKKLDSKVNIIPVIAKADTISKSELHKFKIKIMSELVSNGVQIYQFPIDDETVAKINTAMNGHLPFAVVGSTEEVNIGNKMVKARQYPWGVVQVENENHCDFVKLREMLICVNMEDLREQTHTRHYELYRRCKLEEMGFKDTDPECKPVSLQQTYEAKRQEFLGELQRREEEMRQTFVQRVKEKEAELKDAERELQGKFEQLKRLHADEKSKLEEKRRSLEEEMSVFSKRKAATELLQAQSFNTSTNNKKDKDRKNSGFM | soluble
23 | AIAATSELSCEVSEENCERREAFWAEWKDLTLSTRPEEGCSLHEEDTQRHETYHQQGQCQVLVQRSPWLMMRMGILGRGLQEYQLPYQRVLPLPIFTPAKMGATKEEREDTPIQLQELLALETALGGQCVDRQEVAEITKQLPPVVPVSKPGALRRSLSRSMSQEAQRG | soluble
24 | AIADEVKECLRDFPKEARELYLNDAVPYLDEPLSPLQFYRDWIGPNKPCIIRNAFNDWPALSKWNPTYLREKVGSKVISVAVTPNGFADAVNGNRFVMPEERQMSFSSLLDIVEGKIKSSAVFYVQKQCSNLMEEIPELTGDVQTHIPWMSEALGKLPDAVNFWLGEESAVTSMHKDHYENLYCVISGQKEFILLPPTDRPFIPYELYQPATYRQKDDGTFEIVDEENSPKVPWIPLDPLKPDFERFPSYRHAKALHCTVKAGEMLYLPSLWFHHVRQSHGCIAVNFWYDMEYDIKYNYFQLVEALTNAVGSL | soluble
25 | AIADIEVDIIEFKVPLENNKTIFIWDIQPTFTEAYIYESLWSVYSAFGDLYLLKVCPNATVAEPGFYALVKFYSSAQASKAQRATDKQCLFQSSPLKVRLSTKQNLSFYSSKPLCLSKCHNLANHYLGFGGWTTRIVTLKDLSNCVDAGCQEETGDQGVLLKYGCIMELSFPHHGMSCQGVGVAEEVLDSDQDPEEKLRKRGALMKRAKDKAMEVAFEKVLLLILGNGKVAIEIKIDPDEIVPEENSERVIKVNDISWTHIESADSNAEEDFLWDLTEDLPY | soluble

From the DeepSol protein solubility set
